Source: the DeepSol protein solubility set

experiment: soluble on expression in E. coli; label from the status in PepcDB or PDB records

Sequence	soluble on expression in E. coli
MAHHHHHHMSGGDIWVRRAPIGHPREMTVSTSVNNGPGPQGRHLFAELPINAGGGEVVLGECGTSGPSRSCNAMFSFKPPRHEPLWQPTRLTSPYCVLSANGVQDDFYTSCLSWGKGNIALALRDEVLLFQPSRPLVRLAVLNVQERPRSIISRVTSVAVSRFSDSSCFMGELDGSVGVYASRGDGRLSQTSVFSKPPPPLENTPLAGEAAMTATASVRCLATTDVHPWLVAAGTAAQGLFIFDSRCEKPSAQMVECDTFIALDSKRARKPLSPEDCLSLLSSAEGICGVSWNASGSLVATGGSGGVVNIWSLSQTRAPVQQIKLPNAHTTVKAIAFNPTLPYELAVGGGTNDGMLRLYDVSSSVSYLAWCVSTGCQVTQALYSPDGAFIISAQGLRHDKFTADGRAHSTALRMPNSNGAGVDVHRDSMDALERLTEEFERGMTRNGRTQEELQEPAPSHSGTAMNWAGDTPRTDDSPAFSLVMWRRGTQHRHSVPLGFSNTKPRDRPRSQYIQETERTPLPLFSMYMMTGHRSRPLHLASPFSSTADRGSVASFAGGVDNTIRFWKCFCPRSEAVNWEHRTRASMRAAVTEEDVEGMMAMPLR	not soluble
MAHHHHHHMSGILTNLNIESGYFNEDIKEESNESNFMYANISMLIRAYKKDRNKLILLNKKLNLIKIVGLVLNIEEKKEFIIYTIDDTTGCIKAKLLLTYSLNSYNEKKDNIKINDLIQIFGICNTVSLNEDLTISISSINKLDSFNYLCHHHLLVFHDYLKYQEEERRNPIEDKSRNDEDDLESTQNNENAYFNTFFY	not soluble
MAHHHHHHMSGVNAWGRMHTPAKQSQFTLDMFEEWKAKQNEDIAQRGADRDPAVEEEHNRYMLRQNLNAYVCYKELDRYTTCLEDKRLIRRRDDEDGARGGGTGVSLASSFEINTRNKVNEKLCRATHNTYVSCMSSQKNQEVVLQSASLEPHCTERRAKLFRCLRENQVSEAQTNTPQCTDTYRSLLRCGLNHLWNHYWREITKFSDTDEFHLYELSRDDNKKQAYLRALTTSEAQRQSHLREARDTMLGYYLDPKAAQKGDS	not soluble
MAHHHHHHMSLCHTASRWRSVQCTGDIPPGRIGHTLCANGTETKIFLYGGVNDRNESISNYLDDLYVFDVNKKHWSKIEMTGQVQCSRAFHSAVYYEGKIYIFGGCNGRGRFNKLFSTSEEGLCAQIEASGQPPSTRYCHSAVLFERCMYIFAGKCGGRNSNRRLSDLYLFDFQTNTWMECPQHGDPPTPRSAHAAFTCGRNMIMFGGRSAQGECCEDMYMYNYDTCMWRPIESPNSGPLFGRARNSVVVHHGKVVVFGGWNGKKKLNDLFTYHVDSNTFEVMHEPDENCPSRRECHVAVVCKNTMVVFGGRFRGEFMSDTAELDLGPKTLKQNCRDWILRSSFKELHSNRGERLPLRLQQFIESWRQLICRVEKIEPRTPLQDSAPNEALSSDSNSQHG	not soluble
MAHHHHHHMSLHKEICNYIVKFSSKPVQRLGYEPPKKKRSILRELYHKLIFPYYFKFIRAPYERWQFCATTKFLREHGLMYDDMYSDKDPVIERAISLLPKDIQTRRYRRMLRGTHINYLRLFLHPSEQNYDPYIPYLAPYIEEAKFQLQEEEELLGYHPYDRRLYSGGTTGFGDLEPGLHFLVSIPNLYGAAIPHSKKK	soluble
MAHHHHHHMSQQQWTPDQRRQQIAEMLRNKGVICRDFLFTGRCSRSPTCPYMHVANGETRPVPWSVCTFFTQGKCLRDGCSFFHGTQAQLEELHASGAPVYRPQDYMKIAVPPAEYLNADGSIATHLSIAAVPMTPALHVVHGPTVSHENAVNSFQPVLVMQPNSQAIAPTMFASQGRTAHSTPSHFAFYANAPITSQMPTHSAATVLQPTLHTVQPTTFYQAANALLAQPQQHFAPVPQLNTPQQHQLTQQALGSRVYFHIQPH	not soluble
MAHHHHHHMSSATPPLPADSVTASAALRFSVDFDPSRADSKPSVLLLTQNVGGIEAALGTDAGLGETSPECPHSPLPENGGDTSAAFASVPKDFRGPSYIHVPDDIDSELGVSPVVRQQVAEFLADLRQWLHRLSYMSAAVRAAEASATASSAAPASVAGGAPSPPPSPTPCGAAANTEAYMRSYTPSVRPPLIDMVVLHFQEIGGKYKNKHFNEYFKEQIRTSLLPEAGWTSGLLMDERESGDTLSSSSYQRHRATSTVQALRRTSFEGSSTSNNNGNANGHVGDAHRLSDANSNDTDLTAELDADADAYFTAIGSIVFLSPRFMGIASCLSVPHRTYIPIVDDPLTYAGEAGRLFHSGKFAEAGRSRKGFLLLSLRLGTVQFNVCNVHLFNDDDNRVALKSSPSLYTGRRTRAITEAIAECSAVVDLSEPLFIFGDYNVRMDGKSFTEWVEEKMQMTVRAERKRLRCPEQFWELFTNPATQQELRTRFDIEPQHLMDEVALLSSVELAEMPIQFAPTYSRVAYRTRTGATTTSAGADAAALRDVAATPDAQQQIPTLKDLAGRADAIRAEEQEQTEAIRARPSVSTLLAPLASPLASVPLTHVAASPYRDNFCHDRLPAWCDRVMFNVAGLEWISGDRSRTAPPQPQAASSVSGSAASGAGGLKGRQRSGQGCWYAYAAIDFIHMDHDGVFMLF	not soluble
MAHHHHHHMSSDTMPFKLVEPFVLFHTIFSDDFQHPQVAMITQACGSHSTASNQSTSHFLQIFFDFPLHVEPNEAPTDLIFLCKWGTSHSSHTPPHGNDVNVTRTNFLFRQCSQKKSATDY	not soluble
MAHHHHHHMSTNINEEKCLEGDDIKYEKPDTHKNFWKSFGLNNEAGKLLYHLYGESNKIKPNILSSKHDGDKNKNDKKKEDAKLNTTYRKPQIHYPSLKKKAVKENPIDTIKHRKPLSKILEETQNYDCIKDIPISIGMNRETEKNKLHNIFVEEKCLMVPPSCAPMILTQEEKKEIIEKAQQRYIYINEENKSREEKHIQALRNYKLELIQELNEKRKLLQDIINEDKNIQGNISINQSDKRVSNKGNSYNIIQIKNDIEQCQKSIKKIEDNLNTYE	not soluble
MAHHHHHHMSVGKPITRDSSKQLWRHIKSSGEEELTYTHNPYDDSPNRRKEREKSLNVCRHYAEGRCNRGSTCRFHHETRHNIIVTPHVTPKFSSIAPLKGLPTSPLGAYLSSPPNRSCNGCLLSPTHHNNSMSYNSSTNSSMKILSESSSTIPHLQLPESLSTHCRSSTYVASGMNGEQPPHDVLILSSSLGSLNVGDHVSRNNGGFLLTAQQR	not soluble
MAHHHHHHMSVRERAVVLVDGPAVVHRWYHRWSYTSKHTPVDVKRFTITNARHIIATAHSFDPSHLAQHLLSPQVEYAHTPKHNKIIVCFDQGDGGRRELYPAYKENRAEREHAAELSVIKKVAIKVFTGEPKNTLIVLPDLDAKLKDVDAEADDIIATLALHNQQLKIPTVVMSHDYDLYQLIDEANKCYHYDIRTKHLVSEKGVIERVGVHPKLVRDYKSLAGDSSDNIPGVKGIGKTRALQLLKKYGDLEGVLTKGKKKQGGHLGDLLRAGAADAELSRKLVELRSCPKVLKACEAFMKL	soluble
MAHHHHHHMSYSFVVVPPPVPAATPAFEAHVSTLLRHVPHPTFITCTSYSPYFTSAAAESLAAAADTADESANAMEASVTQQALSYLHQCVAADVGLVLTVTATRATSHAESVQSTQGGDQDSQQHPKQHTSSSSASMVPTTTTLTGASRGGTAAILADFIGRTSAAPATKLGTANSQEATRHRSRGLMVLRGDDGGYTRQCMIAAQKGGASASPPSLSPNPYVDFADGVDLLRFIHSTLRGRDGEAMCEITGDEPAGAAVCLCIGGYPQGHVLDRQWGADAATAAAVPSAQSPLPCQTLASLRFLDEVDTVFADTEAQLRRAQGTHSAPRPPSLESCVEAAEALFARLGAVRRLWTTPSYYPPSVRAACTRRTVANKVFLRPPGTRQCVADSAWDGCGSAGAHVVVTQVITSATEFFDYVEDIRNALRSSVPPARGVPCDRGRDGAAATEARGASVPCLQLRAASALPSSSPSLVIVPGLMAPLRAEQFLRSALQLKVIPSVPFQRALREYEGALHSAVETLRSAVSSNAIDVYAEAKERAEACFQEWMVAITVDIVRDLRARGYTHVNFSAFQYGCGDAVGCVVAALAAEGREEVVEEP	not soluble
MAHHHHHHMTDVDQWKCASFKQEEDHSEATDALLERINATAIPVLLRSTNSSLDDLVNELLALEKMARLGGDALSAKRLVVEILRIYRVHGDHEKMLDTLETLMRKRGQTKQSQGAMIAECGVLLTEGNLSREQRRIVLERVVHLTDSRIHVELEHVRFAIDLAKLMEDDGEKRAACDLLSGLHVETVTNMPRVEKLDALNRLIRLCLELEDYELARLVSRRINHRALSRPGALQAKLKYFELMREYFAQRRSYFHVARCWYETFLSETDETACVSALSSMAVHYLIAEHSSPKELEDHAECAAFSPATKFADRTAAIQGITTTLRKRLEENPQLQYLLEKFTSIELIRERVADDVEALCINHPQLAGFPERQALLRSRCSEHDLLVISRFYRRLRLVRLAELVGLTPQHTEEFLMMMVASRTLYAKIDRVDGLVVFEANKNANDVVTAWDEAVGRSVALLDKVSHLIVKERMLHNITLAQLQQSGATAS	not soluble
MAHHHHHHMTGSTHNGGSRLIQYEDSSNKEFIRKYLVETRNEFIEKQMRALYECREIYKDDIDEVINILTYALENNDSVLLRHEVAYVIGQISNEKCNDILIKLLNDTEENLMVRHEAAEGLAAIGSDSNIEVIKKFLNDEKVEVRETCELALSSLLEKNKYAVCSCSNKDSIKEAIKKKRNDEFVSKKFNTIDPVVFTSSGNAKSVDALIEDLNNEAVPLKLRYEALFKLRDMETDVSINALGEVLIKDKKSAIFRHEVAFVLGQALHLNSLKYLISSLQNVGEHEMVRHEVALALGSLGSLNINSQEYKNVQSEIISTLKTFSKDACRVVAESCLVGLDYIAENLNMAIEVN	not soluble
MAHHHHHHMTQSTIPLQSNIKISDRLEENSIDFCRFVGPFNRADEYAFTAPPWCQREGSENVPGSSLSTSVSAVFVLVSSPPNCGLVARFFCTKLLHYLLWCYKDAAFFLAGPSPRDFNVYRHEDDAAAWRKCMETCLAKSLEHVESARKRGTLTEPVVIVLADCESQAAYDTVHKMLGSMENLFVRHIWFGDSWRESNPVDCSYINVCLRQPAYRLTKCRGSSTCAKITSYLNSCLPTLHHIHLHEPLSGSPEETLRSGCPLFFTRHGQSEYNLEDRLGGDPDITPLGVDDALTLAEFFRDQVVRNPRLFATRDSIWDETEGFEVWCSQLKRTRHTAQPSADVLTNGNLKAFKMLNEIHAGVCEDMTANEVKEQYPSIQFFRHTDKAGFRYPNGESYHDLKRRLVPILYDLNATRKGILVVAHQAVLRAILSFFGGPPVEEAVHKPCAHRAVWCCTYNRLGEPRLSTITLRPRLQSSTEASTSVG	not soluble
MAHHHHHHMTSPMLMAAENFCFTPQSHFMVKTPKSERAHQCSKLYNEAFVVSNRTGLRSILRANESGRSYLNGGGIIARVWALEEALKAFFNLRKKKFVWGCDQSMWALLLIWSITRPENIKPALLVRRGLISLDYETRYFLYPSKTMVMSGMILHFAGPVHVWKRTLPQYLSEINWYRALSNSSPKREASIRLLKNSTVEMYTFWGSRKDAKLSTVCPISNISDPSWLSGQLKK	soluble
MAHHHHHHMTSVIQRLRRIEVEGLENLRNLGGYHTNNSTKTTRWGVVYRSDQLFRVPADVAQMVLVDQLHIRHVYDLRANTEVSAKRYSLPHMQYTSLPIEMSNANRFLKEGENLKQVATAHRFMQEIYREFVRSYAPTMGLIIKGIIDSKASCDNAFLIHCTAGKDRTGWCCYVLLTLLDVMEEEKRSDYLLTNTFVGIPADAWDYDGAEGMGEEAMTALWTVFDEYLDAALDELNKMGGIYKYAKSHMGLTDEDIDELRELMLE	soluble
MAHHHHHHMTVEDQVDHLLAPQRDGQENIQQRQEFNGFVHWGLLHGAHMVLEENQDTKRAHEFVNRYMRDIDLFEKWLEHPKVRAHIQKKFGIDMSAKFDKLMALTMAMYTRSKIQVYEDDPAGALKSLTASMSFITEGADLKKERHRKALGAVLVARGMIHCKLKSFHRADDDLTRALAFVKANRSATLYQLRAEAREALGHIDEARADEERAAQIWEEAEVITPGMDGAPRKFVT	soluble
